Here are results for 167 variants from the Human Domainome abundance scans (Beltran et al. 2025).

The chains are these.
B1: Transcription factor SOX-4, residues 60 to 127; numbered along this chain, Q06945 (parent)
chain: KRPMNAFMVWSQIERRKIMEQSPDMHNAEISKRLGKRWKLLKDSDKIPFIREAERLRLKHMADYPDYK

± gives the uncertainty stated by the source.

The variants in the series derive from B1. As to the kind of experiment: abundance fitness (aPCA) (normalised: wild type 0, dead -1); higher = more abundant; growth selection in yeast, the domain comes from the species named. The following applies: Homo sapiens.
L40P: the abundance fitness is -1.29 ± 0.41.

As to L40G, the abundance fitness was -0.08 ± 0.041.

Consider L40D, for which the abundance fitness stood at 0.094 ± 0.058.

Turning to Q21E, the abundance fitness is -0.062 ± 0.12.

For Q21F, the abundance fitness is -0.426 ± 0.14.

As for Q21L, the abundance fitness is -0.349 ± 0.062.

Regarding Q21D, the abundance fitness was -0.346 ± 0.1.

Consider Q21T, for which the abundance fitness was -0.085 ± 0.075.

As to Q21H, the abundance fitness is -0.282 ± 0.11.

Turning to Q21I, the abundance fitness was -0.128 ± 0.088.

Turning to E54H, the abundance fitness was -0.435 ± 0.045.

E54A: the abundance fitness was -0.29 ± 0.062.

Consider E54D, for which the abundance fitness is -0.264 ± 0.046.

On to E54V, for which the abundance fitness was -0.696 ± 0.055.

On to E54Q, for which the abundance fitness was -0.071 ± 0.062.

Consider E54N, for which the abundance fitness is -0.158 ± 0.041.

Regarding E54K, the abundance fitness was -0.369 ± 0.06.

For the variant E54C, the abundance fitness was -0.425 ± 0.049.

Regarding R33Q, the abundance fitness is 0.332 ± 0.077.

For R33I, the abundance fitness is -0.051 ± 0.2.

Take R33L: the abundance fitness worked out at 0.192 ± 0.059.

Consider D24R, for which the abundance fitness was -0.307 ± 0.044.

In the case of D24F, the abundance fitness is -0.134 ± 0.043.

In the case of D24L, the abundance fitness was -0.251 ± 0.039.

With D24W, the abundance fitness is -0.188 ± 0.063.

On to D24S, for which the abundance fitness was -0.15 ± 0.04.

D24K: the abundance fitness is -0.141 ± 0.064.

Take D24Q: the abundance fitness is -0.114 ± 0.063.

With D24A, the abundance fitness was -0.239 ± 0.06.

Turning to A62D, the abundance fitness is 0.015 ± 0.046.

In the case of A62L, the abundance fitness was -0.175 ± 0.042.

Take A62K: the abundance fitness worked out at 0.008 ± 0.063.

As to K32T, the abundance fitness is -0.12 ± 0.053.

On to K32A, for which the abundance fitness is -0.108 ± 0.047.

K32E: the abundance fitness was determined as 0.183 ± 0.044.

In the case of K32C, the abundance fitness is -0.167 ± 0.046.

For the variant K32M, the abundance fitness came out at 0.082 ± 0.057.

For L58G, the abundance fitness came to 0.015 ± 0.034.

In the case of L58W, the abundance fitness was -0.247 ± 0.055.

Turning to L58I, the abundance fitness was -0.132 ± 0.047.

Turning to L58D, the abundance fitness is -0.039 ± 0.047.

As to L58N, the abundance fitness was -0.028 ± 0.046.

L58A: the abundance fitness came to 0.013 ± 0.05.

Take L34P: the abundance fitness is -0.955 ± 0.2.

In the case of L34T, the abundance fitness is -0.957 ± 0.15.

With L34V, the abundance fitness is -0.83 ± 0.18.

Take I13F: the abundance fitness is -0.21 ± 0.18.

Consider I13N, for which the abundance fitness was -0.164 ± 0.082.

For the variant R37V, the abundance fitness was -0.2 ± 0.06.

Consider R37L, for which the abundance fitness is -0.364 ± 0.097.

For the variant R37K, the abundance fitness is 0.052 ± 0.078.

For R37N, the abundance fitness was 0.101 ± 0.29.

R37P: the abundance fitness was -0.811 ± 0.16.

In the case of R37M, the abundance fitness is -0.067 ± 0.13.

K68V: the abundance fitness was -0.43 ± 0.34.

As to K68P, the abundance fitness stood at 0.128 ± 0.35.

In the case of K68L, the abundance fitness is -0.297 ± 0.42.

As to K68T, the abundance fitness is -0.436 ± 0.45.

As to K68S, the abundance fitness was -0.17 ± 0.096.

With S22L, the abundance fitness was -0.458 ± 0.057.

Regarding S22P, the abundance fitness was -0.745 ± 0.18.

As to S22W, the abundance fitness is 0.016 ± 0.053.

Consider S22E, for which the abundance fitness is -0.027 ± 0.052.

As to A6R, the abundance fitness was -0.713 ± 0.054.

As for A6V, the abundance fitness was -0.507 ± 0.054.

On to A6K, for which the abundance fitness is -0.791 ± 0.092.

For the variant A6N, the abundance fitness was -0.943 ± 0.074.

In the case of A6F, the abundance fitness is -0.671 ± 0.095.

Consider A6S, for which the abundance fitness is -0.495 ± 0.05.

Take A6M: the abundance fitness was -1.01 ± 0.098.

A6P: the abundance fitness is -0.111 ± 0.092.

As to A6D, the abundance fitness was -0.607 ± 0.076.

Regarding I47P, the abundance fitness was -0.796 ± 0.4.

As to I47L, the abundance fitness worked out at 0.078 ± 0.038.

With I47V, the abundance fitness is -0.086 ± 0.037.

With V9A, the abundance fitness was -0.473 ± 0.085.

Consider V9Q, for which the abundance fitness is -0.76 ± 0.16.

Take V9I: the abundance fitness amounted to 0.066 ± 0.057.

For V9T, the abundance fitness is -0.38 ± 0.2.

V9F: the abundance fitness is -0.482 ± 0.15.

On to V9L, for which the abundance fitness was determined as 0.037 ± 0.046.

For the variant K46Q, the abundance fitness was -0.701 ± 0.14.

With K46V, the abundance fitness was -0.798 ± 0.061.

As to K46T, the abundance fitness is -0.694 ± 0.06.

For K46M, the abundance fitness was -0.841 ± 0.074.

As for K46C, the abundance fitness was -0.814 ± 0.087.

For the variant K46D, the abundance fitness was -0.524 ± 0.072.

As to I18K, the abundance fitness was -0.892 ± 0.17.

Turning to I18V, the abundance fitness is -0.482 ± 0.086.

As for I18M, the abundance fitness is -0.169 ± 0.066.

In the case of E52K, the abundance fitness is -0.515 ± 0.12.

On to E52T, for which the abundance fitness was -0.477 ± 0.11.

On to E52G, for which the abundance fitness is -0.375 ± 0.13.

Take E52R: the abundance fitness is -0.322 ± 0.1.

As for E52F, the abundance fitness is -0.215 ± 0.11.

E52W: the abundance fitness is -0.58 ± 0.14.

As to E52S, the abundance fitness was -0.712 ± 0.11.

Take E52N: the abundance fitness is -0.893 ± 0.19.

In the case of I50R, the abundance fitness was -0.2 ± 0.1.

Consider I50Q, for which the abundance fitness was -0.021 ± 0.1.

For the variant I50A, the abundance fitness is -0.186 ± 0.1.

I50C: the abundance fitness was -0.51 ± 0.2.

H60R: the abundance fitness is -0.19 ± 0.047.

Turning to H60Q, the abundance fitness was -0.066 ± 0.072.

For H60C, the abundance fitness is -0.205 ± 0.13.

As for H60P, the abundance fitness is -0.045 ± 0.079.

Take H60S: the abundance fitness stood at 0.041 ± 0.06.

In the case of H60W, the abundance fitness is -0.161 ± 0.074.

Take H60K: the abundance fitness is 0.023 ± 0.1.

Turning to H60N, the abundance fitness is -0.076 ± 0.24.

Turning to H60T, the abundance fitness is -0.05 ± 0.069.

Consider W10A, for which the abundance fitness was -1.03 ± 0.21.

On to W10G, for which the abundance fitness was -0.954 ± 0.2.

Turning to W10Q, the abundance fitness was -0.921 ± 0.33.

As to W10C, the abundance fitness was -1.03 ± 0.43.

With W38C, the abundance fitness is -0.849 ± 0.076.

Take W38V: the abundance fitness was -0.887 ± 0.12.

W38F: the abundance fitness was -1.08 ± 0.16.

Turning to W38E, the abundance fitness is -0.799 ± 0.1.

Consider W38M, for which the abundance fitness was -0.985 ± 0.11.

Turning to W38G, the abundance fitness is -0.744 ± 0.05.

Take W38R: the abundance fitness was -1.16 ± 0.12.

W38Q: the abundance fitness was -1.02 ± 0.24.

Consider A53I, for which the abundance fitness is -0.662 ± 0.23.

Regarding A53G, the abundance fitness was -0.684 ± 0.08.

Consider A53R, for which the abundance fitness is -0.924 ± 0.087.

Regarding A53S, the abundance fitness is -0.431 ± 0.055.

Regarding A53F, the abundance fitness is -0.841 ± 0.27.

As for A53Q, the abundance fitness was -0.898 ± 0.17.

Regarding H26E, the abundance fitness was 0.024 ± 0.095.

As for H26N, the abundance fitness stood at 0.289 ± 0.25.

Regarding H26V, the abundance fitness was -0.039 ± 0.11.

In the case of H26C, the abundance fitness was determined as 0.127 ± 0.084.

Take M8S: the abundance fitness was -0.072 ± 0.037.

Regarding M8A, the abundance fitness was 0.023 ± 0.044.

For the variant M8T, the abundance fitness is -0.068 ± 0.058.

In the case of M8L, the abundance fitness is -0.084 ± 0.043.

Turning to M8V, the abundance fitness is -0.178 ± 0.048.

With M8R, the abundance fitness was -0.176 ± 0.038.

Consider M8W, for which the abundance fitness is -0.204 ± 0.055.

As to M8P, the abundance fitness is -1.01 ± 0.29.

In the case of R55I, the abundance fitness was -0.22 ± 0.06.

In the case of R55A, the abundance fitness was -0.103 ± 0.053.

In the case of R55E, the abundance fitness was -0.333 ± 0.076.

As to R55V, the abundance fitness was -0.248 ± 0.039.

Consider R55L, for which the abundance fitness is -0.326 ± 0.046.

On to R55P, for which the abundance fitness was -0.5 ± 0.09.

In the case of R55Q, the abundance fitness is -0.188 ± 0.08.

R55Y: the abundance fitness is -0.474 ± 0.1.

As for R55M, the abundance fitness is -0.2 ± 0.091.

Turning to R55H, the abundance fitness was -0.284 ± 0.073.

In the case of R55D, the abundance fitness is -0.136 ± 0.07.

Consider D45T, for which the abundance fitness is -0.576 ± 0.11.

On to D45G, for which the abundance fitness is -0.495 ± 0.1.

As for D45Y, the abundance fitness was -0.361 ± 0.21.

For D45L, the abundance fitness was -0.378 ± 0.09.

In the case of D45F, the abundance fitness is -0.39 ± 0.48.

For the variant F49T, the abundance fitness was -0.623 ± 0.13.

Regarding F49V, the abundance fitness is -0.763 ± 0.094.

Turning to F49A, the abundance fitness is -0.533 ± 0.084.

In the case of F49R, the abundance fitness is -1.04 ± 0.11.

Consider M61P, for which the abundance fitness is -0.202 ± 0.087.

For M61S, the abundance fitness turned out to be 0.001 ± 0.071.

Consider M61Q, for which the abundance fitness was determined as 0.092 ± 0.079.

In the case of M61R, the abundance fitness is -0.134 ± 0.057.

As for P48R, the abundance fitness is -0.4 ± 0.055.

With P48Q, the abundance fitness is -0.286 ± 0.2.
